Test results as given in patent publication US20080044815A1, “Genetic Screen for Interaction Interface Mapping” (priority 2003, published 2008).
Numbering of substitutions follows the chain as printed. “Also recorded” adds a separate entry of the source.

T1: MKK7 (Mus musculus, UniProt Q8CE90)
T1 construct: expressed in transfected cells; host or cells: COS cells
T1 sequence (Q8CE90 1-419 isoform Q8CE90-2): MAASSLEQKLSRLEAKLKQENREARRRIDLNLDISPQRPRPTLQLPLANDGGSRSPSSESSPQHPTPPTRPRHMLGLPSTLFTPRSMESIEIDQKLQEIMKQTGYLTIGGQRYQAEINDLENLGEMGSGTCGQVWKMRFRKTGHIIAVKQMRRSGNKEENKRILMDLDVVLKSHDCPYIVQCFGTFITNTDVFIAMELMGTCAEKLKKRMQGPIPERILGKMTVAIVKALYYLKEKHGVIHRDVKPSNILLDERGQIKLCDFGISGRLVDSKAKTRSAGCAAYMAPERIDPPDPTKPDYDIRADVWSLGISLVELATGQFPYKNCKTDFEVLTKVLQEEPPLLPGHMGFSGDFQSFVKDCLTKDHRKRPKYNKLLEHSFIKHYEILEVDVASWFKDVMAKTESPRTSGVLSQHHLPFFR

B1: Leu-131-Arg: single point mutant of human JNK1 (SEQ ID NO: 1) (protein)
chain: MSRSKRDNNFYSVEIGDSTFTVLKRYQNLKPIGSGAQGIVCAAYDAILERNVAIKKLSRPFQNQTHAKRAYRELVLMKCVNHKNIIGLLNVFTPQKSLEEFQDVYIVMELMDANLCQVIQMELDHERMSYRLYQMLCGIKHLHSAGIIHRDLKPSNIVVKSDCTLKILDFGLARTAGTSFMMTPYVVTRYYRAPEVILGMGYKENVDLWSVGCIMGEMVCHKILFPGRDYIDQWNKVIEQLGTPCPEFMKKLQPTVRTYVENRPKYAGYSFEKLFPDVLFPADSEHNKLKASQARDLLSKMLVIDASKRISVDEALQHPYINVWYDPSEAEAPPPKIPDKQLDEREHTIEEWKELIYKEVMDLEERTKNGVIRGQPSPLAQVQQ
modifications: homo sapiens
B2: Tyr-320-His: single point mutant of human JNK1 (SEQ ID NO: 1) (protein)
chain: B1 chain with R131L, Y320H
modifications: homo sapiens
B3: Arg-309-Trp: single point mutant of human JNK1 (SEQ ID NO: 1) (protein)
chain: B1 chain with R131L, R309W
modifications: homo sapiens
B4: wildtype JNK1: FLAG-tagged wild-type human JNK1 (SEQ ID NO: 1) expressed from pCMV-FLAG-JNK1 (protein)
chain: B1 chain with R131L
modifications: FLAG tag; homo sapiens

Experiments:
TI-JIP = biological target: T2, TI-JIP (Homo sapiens, UniProt Q9UQF2); assay: Yeast two-hybrid screening / β-galactosidase overlay assay of JNK1 point mutants for interaction with TI-JIP; type: cell-based; conditions: single point mutants of JNK1, full-length expression confirmed by Western blot
T2 construct: Oligonucleotides encoding TI-JIP were annealed; expressed in transfected cells; host or cells: yeast diploids, RFY 206 (pSH18-34, pGILDA-TI-JIP) mated to PRT 49 (JNK mutants in pJG4-5)

GST-MKK4(ED) = assay: In vitro phosphorylation (activation) of immunoprecipitated JNK by constitutively active MKK4; type: biochemical; conditions: [32P]-ATP, relative to autophosphorylation
Description: FIG. 15a is a representation showing that JNK mutants were not activated by constitutively-active MKK4 (MKK4(ED)) or MKK7. […] JNK proteins were immunoprecipitated from transfected cell lysates, and immunoprecipitates were used as the substrates in in vitro kinase assays with GST-MKK4(ED). Following separation by SDS-PAGE, activation of JNK and mutant proteins was assessed by autoradiography (upper panel) (n=2). Coomassie Blue staining (lower panel) confirmed substrate loading.
FLAG-JNK1 proteins were immunoprecipitated by addition of anti-FLAG M2 (SIGMA) and incubation for 1 h on ice and then addition of Protein G-Sepharose and incubation at 4° C. for 2 h with rotation. Immunocomplexes were washed three times with lysis buffer, then once with reaction buffer (20 mM HEPES, 20 mM MgCl2, 20 mM β-glycerophosphate, 500 μM DTT, 100 μM Na3VO4; pH 7.6). For assays of JNK activity, the washed complexes were resuspended in 40 μL of reaction buffer containing 10 μg GST-c-Jun (1-135), 20 μM ATP and 1 μCi [λ-^32P]ATP and incubated at 30° C. for 30 min. Reactions were stopped by addition of 3× SDS-PAGE Sample Buffer and proteins were separated by SDS-PAGE. JNK activity towards GST-c-Jun (1-135) was visualized by autoradiography and quantitated by Cerenkov counting. For assays of JNK activation, the washed beads were incubated with 30 μL of reaction buffer containing 20 μM ATP, 5 μCi [λ-^32P]ATP and 1 μg of GST-MKK4(ED) at 30° C. for 1 h with occasional mixing. After removal of the supernatant, the beads were washed in 200 μl ice-cold lysis buffer and then heated for 5 min at 100° C. in 15 μL of 3× SDS-PAGE sample buffer, prior to separation by SDS-PAGE. Gels were Coomassie-stained, dried and used for autoradiography. Gel bands corresponding to FLAG-JNK were excised from the gels and their radioactivity quantitated by Cerenkov counting. Where immunoprecipitated GST-MKK7β1 was used to activate JNK, reactions were performed as above, but with 1 μCi [λ-^32P]ATP and incubation at 30° C. for 30 min.

MKK7 = biological target: T1, MKK7; assay: Phospho-blotting for dual-phosphorylated JNK in COS cells co-transfected with MKK7; type: cell-based; conditions: antibody to dual-phosphorylated JNK
GST-c-Jun(1-135) = assay: In vitro kinase assay of FLAG-immunoprecipitated JNK1 from transfected COS cells towards GST-c-Jun(1-135); type: biochemical
Description: FIG. 14b is a representation showing a typical autoradiograph (upper panel) illustrating phosphorylation of GST-c-Jun(1-135) by wild-type (WT) JNK and mutants (n=2) for COS cells transfected as described in the legend to FIG. 14a. Transfected cells were incubated without sorbitol or exposed to hyperosmotic shock (0.5 M sorbitol, 30 min) prior to lysis. FLAG-tagged JNK1 and mutants were immunoprecipitated from cell lysates and then assayed for activity towards GST-c-Jun(1-135) using in vitro kinase assays. Coomassie Blue staining (lower panel) confirmed substrate loading.
FIG. 14c is a photographic representation showing a typical autoradiograph (upper panel) illustrating phosphorylation of GST-c-Jun(1-135) by wild-type (WT) JNK and mutants (n=2) for COS cells transfected as described in the legend to FIG. 14a, or co-transfected with a constitutively-active MEKK1 construct (CA-MEKK1). […]
FLAG-JNK1 proteins were immunoprecipitated by addition of anti-FLAG M2 (SIGMA) and incubation for 1 h on ice and then addition of Protein G-Sepharose and incubation at 4° C. for 2 h with rotation. […] JNK activity towards GST-c-Jun (1-135) was visualized by autoradiography and quantitated by Cerenkov counting. […] Gel bands corresponding to FLAG-JNK were excised from the gels and their radioactivity quantitated by Cerenkov counting. […]

Molecule | interaction of JNK1 mutant with TI-JIP (TI-JIP) | interaction of JNK1 mutant with TI-JIP (TI-JIP; listed as L131→R131) | phosphorylation/activation of JNK by active MKK4 (GST-MKK4(ED)) | phosphorylation/activation of JNK by MKK7 (MKK7) | increase in c-Jun phosphorylation relative to cells transfected with JNK alone (GST-c-Jun(1-135); COS cells co-transfected with constitutively-active MEKK1 (CA-MEKK1)) [fold] | activation of c-Jun phosphorylation over corresponding unstimulated cells (GST-c-Jun(1-135); COS cells, hyperosmotic shock 0.5 M sorbitol, 30 min) [fold]
B1 | incapable of interaction with TI-JIP; also recorded: did not interact with TI-JIP | prevent interaction of JNK with TI-JIP | impaired in their activation | impaired in their activation |  | 
B2 |  |  | impaired in their activation |  |  | 
B3 |  |  | impaired in their activation |  |  | 
B4 |  |  | increased the phosphorylation | strongly phosphorylated by MKK7 | 240 | 5.5
